Experiment [1] addresses non-denatured SHaPrP 27-30 (Syrian hamster) (UniProt P04273). The experiment can be described thus: ELISA on non-denatured PrP 27-30 (FIG. 9).
The target is the same in experiment [2]. The experiment can be described thus: estimated from immunoprecipitation (FIG. 12).
Experiment [3] concerns the target denatured SHaPrP 27-30 (Syrian hamster) (UniProt P04273). Put plainly: ELISA on denatured PrP 27-30 (FIG. 10).

Usually EC50 stands for the concentration at which the effect is half-maximal.

Take 3F4 Fab: the EC50 in experiment [1] amounted to 2 µg/mL. In addition, the Ka in experiment [2] is < 1e+07 M⁻¹; in experiment [3], 1e+08 M⁻¹.

The record behind these values is patent publication US20030228303A1.
